The subject of data set [1] is Saccharomyces cerevisiae. Kind of data set: protein stability index of tFT-peptide fusion (C-terminal peptide) (PSI (0-1 scale)); higher = more stable (slower turnover). As to conditions: genetic background: wild type; temperature: 30 C.
Data set [2] concerns Saccharomyces cerevisiae. The data set is described as above. As for the experimental part:
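MPS profiling in S. cerevisiae of the tFT-X12 degron library: putative degron peptides plus stable controls, 12 aa, fused to the C-terminus of a sfGFP-mCherry timer. Cells are FACS-sorted into 8 mCherry/sfGFP bins and deep-sequenced. PSI runs from 0 (unstable) to 1 (stable). Backgrounds are wild type, das1Δ and doa10Δ at 30 °C, and wild type, das1Δ, cdc34-1 and cdc53-1 at 37 °C; 2-3 technical replicates each.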

Setting [3] is: genetic background: cdc34-1, temperature: 37 C.
[4] abbreviates: genetic background: cdc53-1, temperature: 37 C.
Setting [5] is: genetic background: das1 deletion, temperature: 30 C.
[6] abbreviates: genetic background: das1 deletion, temperature: 37 C.
The mark [7] stands for this setting: genetic background: doa10 deletion, temperature: 30 C.
Where [8] appears, read: genetic background: wild type, temperature: 30 C.
The mark [9] stands for this setting: genetic background: wild type, temperature: 37 C.

± gives the standard deviation of the averaged measurements.

This passage reports protein stability index results from the supplement of paper PMC10724198.
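Also: PSI is a weighted mean of sequencing reads over stability bins, variants kept only with over 10 reads, mCherry proximal and sfGFP distal, peptide attached via GGGS linker.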

YLVSFVAFLRLF: the protein stability index was found to be 0.143 ± 0.19 in the data set with Saccharomyces cerevisiae [1]; 0.336 ± 0.02 with Saccharomyces cerevisiae [2] (setting [3]); 0.446 ± 0.013 in the data set on Saccharomyces cerevisiae [2] (setting [4]); 0.422 ± 0.025 with Saccharomyces cerevisiae [2] (setting [5]); 0.5418 ± 0.0026 with Saccharomyces cerevisiae [2] (setting [6]); 0.0967 ± 0.012 with Saccharomyces cerevisiae [2] (setting [7]). Further, the protein stability index with Saccharomyces cerevisiae [2] (setting [8]) was found to be 0.0919 ± 0.018; in the data set on Saccharomyces cerevisiae [2] (setting [9]) it was 0.1 ± 0.019.
Regarding YMNLYKNVISVT, the protein stability index in the data set on Saccharomyces cerevisiae [1] worked out at 0.408 ± 0.057; in the data set on Saccharomyces cerevisiae [2] (setting [3]), 0.473 ± 0.044; in the data set on Saccharomyces cerevisiae [2] (setting [4]), 0.47 ± 0.054; in the data set with Saccharomyces cerevisiae [2] (setting [5]), 0.378 ± 0.024; in the data set on Saccharomyces cerevisiae [2] (setting [6]), 0.522 ± 0.0072; in the data set on Saccharomyces cerevisiae [2] (setting [7]) it was 0.316 ± 0.021. Moreover, the protein stability index with Saccharomyces cerevisiae [2] (setting [8]) amounted to 0.353 ± 0.024; with Saccharomyces cerevisiae [2] (setting [9]), 0.457 ± 0.0095.
As to YMVESVWVLLGT, the protein stability index amounted to 0.49 ± 0.016 with Saccharomyces cerevisiae [1]; 0.573 ± 0.029 in the data set with Saccharomyces cerevisiae [2] (setting [3]); 0.5755 ± 0.0052 in the data set on Saccharomyces cerevisiae [2] (setting [4]); 0.431 ± 0.032 with Saccharomyces cerevisiae [2] (setting [5]); 0.582 ± 0.0083 in the data set with Saccharomyces cerevisiae [2] (setting [6]); 0.381 ± 0.014 in the data set on Saccharomyces cerevisiae [2] (setting [7]). Besides, the protein stability index in the data set on Saccharomyces cerevisiae [2] (setting [8]) worked out at 0.421 ± 0.042; in the data set on Saccharomyces cerevisiae [2] (setting [9]) it was 0.564 ± 0.0079.
On to YPFIPLIVCGFF, for which the protein stability index in the data set with Saccharomyces cerevisiae [1] is 0.404 ± 0.02; with Saccharomyces cerevisiae [2] (setting [3]), 0.401 ± 0.028; with Saccharomyces cerevisiae [2] (setting [4]) it was 0.41 ± 0.0085; in the data set on Saccharomyces cerevisiae [2] (setting [5]), 0.344 ± 0.024; with Saccharomyces cerevisiae [2] (setting [6]) it was 0.4747 ± 0.00094; with Saccharomyces cerevisiae [2] (setting [7]), 0.395 ± 0.019. The protein stability index with Saccharomyces cerevisiae [2] (setting [8]) is 0.338 ± 0.018; in the data set on Saccharomyces cerevisiae [2] (setting [9]), 0.448 ± 0.01.
For the sequence YPVGAAFIRARA, the protein stability index with Saccharomyces cerevisiae [1] was 0.491 ± 0.011; in the data set on Saccharomyces cerevisiae [2] (setting [3]), 0.45 ± 0.016; with Saccharomyces cerevisiae [2] (setting [4]), 0.501 ± 0.021; with Saccharomyces cerevisiae [2] (setting [5]), 0.361 ± 0.036; in the data set on Saccharomyces cerevisiae [2] (setting [6]), 0.5378 ± 0.0026; in the data set on Saccharomyces cerevisiae [2] (setting [7]), 0.326 ± 0.0087. Also, the protein stability index in the data set on Saccharomyces cerevisiae [2] (setting [8]) is 0.377 ± 0.026; with Saccharomyces cerevisiae [2] (setting [9]), 0.5174 ± 0.0047.
On to YQHSRSGRNKII, for which the protein stability index in the data set on Saccharomyces cerevisiae [1] stood at 0.235 ± 0.012; in the data set with Saccharomyces cerevisiae [2] (setting [3]), 0.591 ± 0.12; in the data set with Saccharomyces cerevisiae [2] (setting [4]) it was 0.724 ± 0.033; with Saccharomyces cerevisiae [2] (setting [5]), 0.652 ± 0.028; in the data set with Saccharomyces cerevisiae [2] (setting [6]), 0.716 ± 0.021; in the data set with Saccharomyces cerevisiae [2] (setting [7]) it was 0.109 ± 0.0063. Besides, the protein stability index in the data set with Saccharomyces cerevisiae [2] (setting [8]) came out at 0.117 ± 0.034; with Saccharomyces cerevisiae [2] (setting [9]), 0.122 ± 0.035.
With YSRFALRPQLLV, the protein stability index with Saccharomyces cerevisiae [1] was found to be 0.285 ± 0.011; in the data set with Saccharomyces cerevisiae [2] (setting [3]), 0.553 ± 0.051; in the data set on Saccharomyces cerevisiae [2] (setting [4]), 0.634 ± 0.013; in the data set with Saccharomyces cerevisiae [2] (setting [5]), 0.512 ± 0.025; in the data set on Saccharomyces cerevisiae [2] (setting [6]) it was 0.62 ± 0.029; in the data set on Saccharomyces cerevisiae [2] (setting [7]), 0.172 ± 0.0042. For the same sequence, the protein stability index in the data set on Saccharomyces cerevisiae [2] (setting [8]) was 0.184 ± 0.024; with Saccharomyces cerevisiae [2] (setting [9]) it was 0.327 ± 0.0056.
Regarding YSVNSLFCKVFG, the protein stability index worked out at 0.417 ± 0.032 in the data set with Saccharomyces cerevisiae [1]; 0.469 ± 0.012 in the data set with Saccharomyces cerevisiae [2] (setting [3]); 0.4777 ± 0.00052 with Saccharomyces cerevisiae [2] (setting [4]); 0.348 ± 0.031 in the data set on Saccharomyces cerevisiae [2] (setting [5]); 0.541 ± 0.0043 in the data set on Saccharomyces cerevisiae [2] (setting [6]); 0.3135 ± 0.0031 in the data set with Saccharomyces cerevisiae [2] (setting [7]). Moreover, the results for the protein stability index with Saccharomyces cerevisiae [2] (setting [8]) and in the data set on Saccharomyces cerevisiae [2] (setting [9]) were 0.361 ± 0.022 and 0.5054 ± 0.002, respectively.
For YTCFLFLLRCMT, the protein stability index in the data set with Saccharomyces cerevisiae [1] was determined as 0.292 ± 0.003; with Saccharomyces cerevisiae [2] (setting [3]), 0.303 ± 0.048; with Saccharomyces cerevisiae [2] (setting [4]) it was 0.3521 ± 0.00065; in the data set with Saccharomyces cerevisiae [2] (setting [5]), 0.261 ± 0.044; in the data set on Saccharomyces cerevisiae [2] (setting [6]), 0.415 ± 0.0047; in the data set on Saccharomyces cerevisiae [2] (setting [7]), 0.1757 ± 0.00026. Besides, the protein stability index with Saccharomyces cerevisiae [2] (setting [8]) came to 0.198 ± 0.024; in the data set on Saccharomyces cerevisiae [2] (setting [9]), 0.294 ± 0.002.
For YVDSGLTLIHLA, the protein stability index in the data set with Saccharomyces cerevisiae [1] turned out to be 0.297 ± 0.021; with Saccharomyces cerevisiae [2] (setting [3]) it was 0.606 ± 0.0079; in the data set on Saccharomyces cerevisiae [2] (setting [4]) it was 0.723 ± 0.036; in the data set on Saccharomyces cerevisiae [2] (setting [5]), 0.662 ± 0.018; in the data set on Saccharomyces cerevisiae [2] (setting [6]), 0.72 ± 0.013; with Saccharomyces cerevisiae [2] (setting [7]), 0.17091 ± 8.6e-05. The protein stability index came out at 0.181 ± 0.023 with Saccharomyces cerevisiae [2] (setting [8]) and 0.334 ± 0.011 in the data set on Saccharomyces cerevisiae [2] (setting [9]).
For YVQTKKTRYVLV, the protein stability index came out at 0.454 ± 0.055 in the data set with Saccharomyces cerevisiae [1]; 0.483 ± 0.027 in the data set on Saccharomyces cerevisiae [2] (setting [3]); 0.506 ± 0.027 with Saccharomyces cerevisiae [2] (setting [4]); 0.383 ± 0.025 with Saccharomyces cerevisiae [2] (setting [5]); 0.543 ± 0.011 in the data set on Saccharomyces cerevisiae [2] (setting [6]); 0.32 ± 0.0047 with Saccharomyces cerevisiae [2] (setting [7]). The results for the protein stability index in the data set on Saccharomyces cerevisiae [2] (setting [8]) and in the data set on Saccharomyces cerevisiae [2] (setting [9]) were 0.343 ± 0.018 and 0.5038 ± 0.0023, respectively.
Turning to YVSIWSPILWLA, the protein stability index in the data set with Saccharomyces cerevisiae [1] stood at 0.117 ± 0.024; in the data set on Saccharomyces cerevisiae [2] (setting [3]), 0.1694 ± 0.0014; with Saccharomyces cerevisiae [2] (setting [4]) it was 0.262 ± 0.012; in the data set on Saccharomyces cerevisiae [2] (setting [5]), 0.293 ± 0.028; with Saccharomyces cerevisiae [2] (setting [6]), 0.453 ± 0.0083; with Saccharomyces cerevisiae [2] (setting [7]), 0.0697 ± 0.007. Moreover, the protein stability index was found to be 0.0628 ± 0.017 in the data set on Saccharomyces cerevisiae [2] (setting [8]) and 0.0657 ± 0.016 in the data set on Saccharomyces cerevisiae [2] (setting [9]).
Turning to YYFCMYFKVTLC, the protein stability index with Saccharomyces cerevisiae [1] was 0.0781 ± 0.03; in the data set on Saccharomyces cerevisiae [2] (setting [3]) it was 0.0445 ± 0.006; in the data set with Saccharomyces cerevisiae [2] (setting [4]) it was 0.15 ± 0.064; in the data set with Saccharomyces cerevisiae [2] (setting [5]), 0.15 ± 0.028; with Saccharomyces cerevisiae [2] (setting [6]), 0.285 ± 0.0044; in the data set with Saccharomyces cerevisiae [2] (setting [7]), 0.0456 ± 0.019. The results for the protein stability index in the data set on Saccharomyces cerevisiae [2] (setting [8]) and in the data set with Saccharomyces cerevisiae [2] (setting [9]) were 0.043 ± 0.0087 and 0.0707 ± 0.042, respectively.
Take YYFFLTFLCYVF: the protein stability index in the data set on Saccharomyces cerevisiae [1] was 0.207 ± 0.018; with Saccharomyces cerevisiae [2] (setting [3]) it was 0.153 ± 0.024; with Saccharomyces cerevisiae [2] (setting [4]), 0.216 ± 0.039; with Saccharomyces cerevisiae [2] (setting [5]) it was 0.154 ± 0.023; in the data set on Saccharomyces cerevisiae [2] (setting [6]), 0.255 ± 0.01; with Saccharomyces cerevisiae [2] (setting [7]), 0.148 ± 0.019. Moreover, the protein stability index in the data set on Saccharomyces cerevisiae [2] (setting [8]) amounted to 0.112 ± 0.027; in the data set on Saccharomyces cerevisiae [2] (setting [9]), 0.221 ± 0.011.
